The labels stand for the following.
B1: human recombinant HVEM (hHVEM) (receptor, UniProt Q92956 39-202, looked up)
chain: LPSCKEDEYPVGSECCPKCSPGYRVKEACGELTGTVCEPCPPGTYIAHLNGLSKCLQCQMCDPAMGLRASRNCSRTENAVCGCSPGHFCIVQDGDHCAACRAYATSSPGQRVQKGGTESQDTLCQNCPPGTFSPNGTLEECQHQTKCSWLVTKAGAGTSSSHWV
notes: Recombinant protein coated at 2.5 ug/ml; also called recombinant hHVEM; hHVEM coated plates

The target of one test is T1, hLIGHT-His (human, UniProt O43557 59-240).
T1 construct: Named only as hLIGHT-His; also called recombinant hLIGHT; not shown: exact limits of the vendor construct
T1 sequence (O43557 59-240 limits assumed): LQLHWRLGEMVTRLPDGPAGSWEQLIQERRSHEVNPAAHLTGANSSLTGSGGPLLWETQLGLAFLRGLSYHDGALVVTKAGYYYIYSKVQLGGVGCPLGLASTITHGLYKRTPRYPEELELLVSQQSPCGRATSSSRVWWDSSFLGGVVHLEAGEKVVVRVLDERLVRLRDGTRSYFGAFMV
Description: ELISA, plate coated with hHVEM, antibody 10 µg/ml present, hLIGHT-His 2.5 µg/ml, detection with anti-LIGHT. For orientation: An ELISA detects its analyte on a solid surface through an enzyme-linked reagent.

In test [1] the target is T2, His-tagged human HVEM (human, UniProt Q92956 39-202).
T2 construct: extracellular domain; also called His-tagged HVEM (Acro Biosystems); HVEM extracellular domain peptide; not shown: His tag
T2 sequence (looked up): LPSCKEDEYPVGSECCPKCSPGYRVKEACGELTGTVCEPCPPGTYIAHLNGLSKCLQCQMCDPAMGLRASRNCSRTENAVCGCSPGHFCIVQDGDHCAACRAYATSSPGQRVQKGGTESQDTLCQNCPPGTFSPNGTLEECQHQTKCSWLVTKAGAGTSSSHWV
Description: Biacore 8K multi-cycle kinetics, purified antibody captured on Protein A, His-tagged human HVEM as analyte, 25 C. On the procedure:
(§1) Multi-Cycle Kinetics: Multicycle kinetic analysis was performed on purified antibodies. Kinetic experiments were performed at 25° C. on a Biacore 8K. HBS-P+0.1% BSA (Cytiva, Marlborough, USA) was used as running buffer. Purified antibodies were diluted to 1.0 μg/mL in running buffer and at the start of each cycle, loaded onto Fc2, Fc3 and Fc4 of a Protein A sensor chip (Cytiva, Marlborough, USA). Antibodies were captured at a flow rate of 10 μl/min to give an immobilisation level (RL) of ˜ 100 RU. The surface was then allowed to stabilise. Multi-cycle kinetic data was obtained using His-tagged human HVEM as the analyte injected at a flow rate of 50 μl/min. A eight point, two-fold dilution range from 0.78 nM to 100 nM of antigen were prepared in running buffer. For each concentration, the association phases were monitored for 180 seconds and the dissociation phase was measured for 300 seconds. Regeneration of the sensor chip surface was conducted between cycles using two injections of 10 mM Glycine-HCl, pH 1.5.
(§2) First a multicycle kinetics Biacore affinity assay was performed to confirm the improved binding of the H4, T57A, T57G and T57N antibodies (FIG. 3A). Each purified antibody was captured to a Protein A sensor chip before increasing concentrations of antigen (hHVEM) were injected. The fold improvement in affinity was calculated by dividing the average KD of the parent antibody by the average KD for each variant antibody. […] A single-cycle kinetic Biacore assay was also performed with the H4 N55G, H4 N55S, H4 N55D, H4 N55Q, H4 N55E, and H4 T57E antibodies (FIG. 3B).
(SPR reads the build-up and loss of mass on a sensor chip optically.)

In test [2] the target is B1. The test is described as follows: blocking ELISA: antibody titrated on plate-bound hHVEM in the presence of hBTLA, bound hBTLA detected (OD); the IC50 column has no unit, µg/ml is the unit of the x axis.
The target in test [3] is T2, His-tagged human HVEM. The test is described as follows: Biacore KD to HVEM extracellular domain, IgG captured on Protein A, His-tagged HVEM as analyte; reference: Parental. On the procedure: Affinity maturation: To improve binding affinity, the parental antibody was affinity matured using phage display. Heavy and/or light chain CDRs of variable domain regions were semi-randomized using oligonucleotide mutagenesis. Selections were performed using separate heavy and light chain phage libraries and decreasing concentrations of biotinylated His-tagged HVEM target to select the highest affinity binders from each library. Following four rounds of selections individual clones were screened as scFv supematants in a binding ELISA to identify lead candidates with signals greater than the parental scFv expressed in the same assay. Identified hits were converted into IgG and cloned into mammalian expression vectors. Plasmids encoding the affinity improved variants paired with the appropriate parental heavy or light chain, as well as the parental antibody, were transiently transfected small scale into HEK EBNA adherent cells (LGC Standards, Teddington, UK). At five days post-transfection, the supernatants were harvested, quantified by Octet (serial no. FB-30203) and analysed by Biacore single cycle kinetics.
Single Cycle Kinetics: To assess the binding of the affinity matured IgGs, single cycle kinetic analysis was performed on supernatants using a Biacore T200 (serial no. 1909913). Kinetic experiments were performed at 25° C. running Biacore T200 Control software V2.0.1 and Evaluation software V3.0 (Cytiva, Marlborough, USA). Antibodies were diluted in HBS-P+(Cytiva, Marlborough, USA) containing 1 mg/ml BSA to a final concentration of 1.0 μg/ml. Antibodies were loaded onto Fc2, Fc3 and Fc4 of the Protein A capture Sensor chip (Cytiva, Marlborough, USA). IgGs were captured at a flow rate of 10 μl/min to give an immobilisation level (RL) of ˜50 RU. The surface was then allowed to stabilize. Single cycle kinetics data was obtained using His-tagged HVEM (Acro Biosystems, Newark, USA) as the analyte at a flow rate of 40 μl/min. A two-fold dilution range from […] to 100 nM His-tagged antigen without regeneration between each concentration was used.

Test [4] deals with T3, HVEM on HVEM-positive melanoma cells (UniProt Q92956 39-283, limits assumed).
T3 sequence (looked up): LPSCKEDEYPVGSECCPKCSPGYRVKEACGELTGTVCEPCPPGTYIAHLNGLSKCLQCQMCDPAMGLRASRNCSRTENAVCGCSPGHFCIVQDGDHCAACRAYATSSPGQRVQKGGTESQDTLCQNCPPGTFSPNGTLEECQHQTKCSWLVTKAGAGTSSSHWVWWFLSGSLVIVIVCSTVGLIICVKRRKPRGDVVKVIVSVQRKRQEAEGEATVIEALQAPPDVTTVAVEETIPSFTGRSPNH
The test is described as follows: cell-based or functional assay.

In test [5] the target is T2, His-tagged human HVEM. Description: Biacore 8K multi-cycle kinetics, purified antibody captured on Protein A, His-tagged human HVEM as analyte; reference: Parental. On the procedure: as §1, §2

The source of these data is US20240067742A1 (4C BIOMED, published 2024).

As for B1, in the test with hLIGHT-His, the binding result was “binds”.

B2: H4-T57A (antibody, human IgG4 S228P, kappa, V domains shown)
VH: QVQLVQSGGGLVQPGGSLRLSCAASGFTFSSYAMSWVRQAPGKGLEWVSNIYSNPNRAYYADSVEGRFTISRDNSKNTLYLQMNSLRAEDTAVYYCAKAPGDYTAYFDYWGQGTLVTVSS
VL: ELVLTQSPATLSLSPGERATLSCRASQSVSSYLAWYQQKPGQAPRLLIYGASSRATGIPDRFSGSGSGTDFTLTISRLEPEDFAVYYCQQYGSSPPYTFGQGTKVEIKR
notes: H4 variant without the CDR-H2 glycosylation site; also called T57A antibody; T57A variant
Molecule B2 yielded a Kd in the test with His-tagged human HVEM [1] of 2.17 nM. In addition, the IC50 in test [2] amounted to 0.53 µg/mL. For the same molecule, in the test with His-tagged human HVEM [3], the “Fold improvement vs parental (KD)” value stood at 20.7 fold. In test [4], the “increase in specific killing events (Caspase 3/7) in melanoma cells cocultured with autologous TILs, as compared to the isotype control, after nine hours” value was 19%. For the same molecule, the “Fold improvement (KD parent / KD variant)” value in the test with His-tagged human HVEM [5] amounted to 30.1 fold.

B3: H4-T57N (antibody, human IgG4 S228P, kappa, V domains shown)
VH: QVQLVQSGGGLVQPGGSLRLSCAASGFTFSSYAMSWVRQAPGKGLEWVSNIYSNPNRNYYADSVEGRFTISRDNSKNTLYLQMNSLRAEDTAVYYCAKAPGDYTAYFDYWGQGTLVTVSS
VL: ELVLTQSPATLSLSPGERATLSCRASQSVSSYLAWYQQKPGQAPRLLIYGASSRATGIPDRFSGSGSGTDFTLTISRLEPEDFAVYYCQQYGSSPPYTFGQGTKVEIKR
notes: H4 variant without the CDR-H2 glycosylation site; also called H4-T57N-CDR2
B3 displayed an equilibrium dissociation constant (Kd) with His-tagged human HVEM [1] of 1.94 nM. Besides, in the test with His-tagged human HVEM [3], the “Fold improvement vs parental (KD)” value was determined as 23.5 fold. The “increase in specific killing events (Caspase 3/7) in melanoma cells cocultured with autologous TILs, as compared to the isotype control, after nine hours” value in test [4] came to 9%. The “Fold improvement (KD parent / KD variant)” value in the test with His-tagged human HVEM [5] came to 33.6 fold.

Usually Kd stands for the constant that tells how readily two partners part at equilibrium. One may read the IC50 as the point on the concentration scale where inhibition reaches its midpoint.
